From IntAct's records for PubMed 29892012

B1: Zinc finger and BTB domain-containing protein 49 (Homo sapiens), Q6ZSB9 (parent)
chain: MDPVATHSCHLLQQLHEQRIQGLLCDCMLVVKGVCFKAHKNVLAAFSQYFRSLFQNSSSQKNDVFHLDVKNVSGIGQILDFMYTSHLDLNQDNIQVMLDTAQCLQVQNVLSLCHTFLKSATVVQPPGMPCNSTLSLQSTLTPDATCVISENYPPHLLQECSADAQQNKTLDESHPHASPSVNRHHSAGEISKQAPDTSDGSCTELPFKQPNYYYKLRNFYSKQYHKHAAGPSQERVVEQPFAFSTSTDLTTVESQPCAVSHSECILESPEHLPSNFLAQPVNDSAPHPESDATCQQPVKQMRLKKAIHLKKLNFLKSQKYAEQVSEPKSDDGLTKRLESASKNTLEKASSQSAEEKESEEVVSCENFNCISETERPEDPAALEDQSQTLQSQRQYACELCGKPFKHPSNLELHKRSHTGEKPFECNICGKHFSQAGNLQTHLRRHSGEKPYICEICGKRFAASGDVQRHIIIHSGEKPHLCDICGRGFSNFSNLKEHKKTHTADKVFTCDECGKSFNMQRKLVKHRIRHTGERPYSCSACGKCFGGSGDLRRHVRTHTGEKPYTCEICNKCFTRSAVLRRHKKMHCKAGDESPDVLEELSQAIETSDLEKSQSSDSFSQDTSVTLMPVSVKLPVHPVENSVAEFDSHSGGSYCKLRSMIQPHGVSDQEKLSLDPGKLAKPQMQQTQPQAYAYSDVDTPAGGEPLQADGMAMIRSSLAALDNHGGDPLGSRASSTTYRNSEGQFFSSMTLWGLAMKTLQNENELDQ
partner: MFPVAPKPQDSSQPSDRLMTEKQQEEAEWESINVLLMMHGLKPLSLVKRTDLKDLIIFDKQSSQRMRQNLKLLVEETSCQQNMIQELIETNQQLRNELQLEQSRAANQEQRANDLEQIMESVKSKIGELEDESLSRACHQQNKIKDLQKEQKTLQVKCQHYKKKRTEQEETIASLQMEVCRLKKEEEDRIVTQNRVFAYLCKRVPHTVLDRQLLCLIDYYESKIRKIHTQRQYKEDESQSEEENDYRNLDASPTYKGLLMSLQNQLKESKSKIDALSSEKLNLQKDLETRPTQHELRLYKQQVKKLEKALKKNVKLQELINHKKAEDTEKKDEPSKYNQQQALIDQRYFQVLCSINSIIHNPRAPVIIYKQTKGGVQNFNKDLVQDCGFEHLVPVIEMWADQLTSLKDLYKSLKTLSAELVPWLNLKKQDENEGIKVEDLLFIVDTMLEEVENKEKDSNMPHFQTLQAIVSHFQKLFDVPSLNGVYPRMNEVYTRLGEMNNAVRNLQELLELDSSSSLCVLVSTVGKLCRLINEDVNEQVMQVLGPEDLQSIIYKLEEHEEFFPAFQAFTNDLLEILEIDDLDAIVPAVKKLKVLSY
B2: E3 ubiquitin-protein ligase LNX (Homo sapiens), Q8TBB1 (parent)
chain: MNQPESANDPEPLCAVCGQAHSLEENHFYSYPEEVDDDLICHICLQALLDPLDTPCGHTYCTLCLTNFLVEKDFCPMDRKPLVLQHCKKSSILVNKLLNKLLVTCPFREHCTQVLQRCDLEHHFQTSCKGASHYGLTKDRKRRSQDGCPDGCASLTATAPSPEVSAAATISLMTDEPGLDNPAYVSSAEDGQPAISPVDSGRSNRTRARPFERSTIRSRSFKKINRALSVLRRTKSGSAVANHADQGRENSENTTAPEVFPRLYHLIPDGEITSIKINRVDPSESLSIRLVGGSETPLVHIIIQHIYRDGVIARDGRLLPGDIILKVNGMDISNVPHNYAVRLLRQPCQVLWLTVMREQKFRSRNNGQAPDAYRPRDDSFHVILNKSSPEEQLGIKLVRKVDEPGVFIFNVLDGGVAYRHGQLEENDRVLAINGHDLRYGSPESAAHLIQASERRVHLVVSRQVRQRSPDIFQEAGWNSNGSWSPGPGERSNTPKPLHPTITCHEKVVNIQKDPGESLGMTVAGGASHREWDLPIYVISVEPGGVISRDGRIKTGDILLNVDGVELTEVSRSEAVALLKRTSSSIVLKALEVKEYEPQEDCSSPAALDSNHNMAPPSDWSPSWVMWLELPRCLYNCKDIVLRRNTAGSLGFCIVGGYEEYNGNKPFFIKSIVEGTPAYNDGRIRCGDILLAVNGRSTSGMIHACLARLLKELKGRITLTIVSWPGTFL
partner: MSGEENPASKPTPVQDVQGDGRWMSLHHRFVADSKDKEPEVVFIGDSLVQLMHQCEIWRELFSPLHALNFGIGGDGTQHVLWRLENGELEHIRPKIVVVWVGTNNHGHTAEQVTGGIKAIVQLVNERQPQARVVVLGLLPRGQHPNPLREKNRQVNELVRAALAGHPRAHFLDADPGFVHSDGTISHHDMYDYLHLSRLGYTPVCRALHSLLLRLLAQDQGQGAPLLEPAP
B3: F-box only protein 11 (Homo sapiens), Q86XK2 (parent)
chain: MNSVRAANRRPRRVSRPRPVQQQQQQPPQQPPPQPPQQQPPQQQPPPPPQQQQQQQPPPPPPPPPPLPQERNNVGERDDDVPADMVAEESGPGAQNSPYQLRRKTLLPKRTACPTKNSMEGASTSTTENFGHRAKRARVSGKSQDLSAAPAEQYLQEKLPDEVVLKIFSYLLEQDLCRAACVCKRFSELANDPILWKRLYMEVFEYTRPMMHPEPGKFYQINPEEYEHPNPWKESFQQLYKGAHVKPGFAEHFYSNPARYKGRENMLYYDTIEDALGGVQEAHFDGLIFVHSGIYTDEWIYIESPITMIGAAPGKVADKVIIENTRDSTFVFMEGSEDAYVGYMTIRFNPDDKSAQHHNAHHCLEITVNCSPIIDHCIIRSTCTVGSAVCVSGQGACPTIKHCNISDCENVGLYITDHAQGIYEDNEISNNALAGIWVKNHGNPIIRRNHIHHGRDVGVFTFDHGMGYFESCNIHRNRIAGFEVKAYANPTVVRCEIHHGQTGGIYVHEKGRGQFIENKIYANNFAGVWITSNSDPTIRGNSIFNGNQGGVYIFGDGRGLIEGNDIYGNALAGIQIRTNSCPIVRHNKIHDGQHGGIYVHEKGQGVIEENEVYSNTLAGVWVTTGSTPVLRRNRIHSGKQVGVYFYDNGHGVLEDNDIYNHMYSGVQIRTGSNPKIRRNKIWGGQNGGILVYNSGLGCIEDNEIFDNAMAGVWIKTDSNPTLRRNKIHDGRDGGICIFNGGRGLLEENDIFRNAQAGVLISTNSHPILRKNRIFDGFAAGIEITNHATATLEGNQIFNNRFGGLFLASGVNVTMKDNKIMNNQDAIEKAVSRGQCLYKISSYTSYPMHDFYRCHTCNTTDRNAICVNCIKKCHQGHDVEFIRHDRFFCDCGAGTLSNPCTLAGEPTHDTDTLYDSAPPIESNTLQHN
B4: Muscleblind-like protein 1 (Homo sapiens), Q9NR56 (parent)
chain: MAVSVTPIRDTKWLTLEVCREFQRGTCSRPDTECKFAHPSKSCQVENGRVIACFDSLKGRCSRENCKYLHPPPHLKTQLEINGRNNLIQQKNMAMLAQQMQLANAMMPGAPLQPVPMFSVAPSLATNASAAAFNPYLGPVSPSLVPAEILPTAPMLVTGNPGVPVPAAAAAAAQKLMRTDRLEVCREYQRGNCNRGENDCRFAHPADSTMIDTNDNTVTVCMDYIKGRCSREKCKYFHPPAHLQAKIKAAQYQVNQAAAAQAAATAAAMTQSAVKSLKRPLEATFDLGIPQAVLPPLPKRPALEKTNGATAVFNTGIFQYQQALANMQLQQHTAFLPPVPMVHGATPATVSAATTSATSVPFAATATANQIPIISAEHLTSHKYVTQM
partner: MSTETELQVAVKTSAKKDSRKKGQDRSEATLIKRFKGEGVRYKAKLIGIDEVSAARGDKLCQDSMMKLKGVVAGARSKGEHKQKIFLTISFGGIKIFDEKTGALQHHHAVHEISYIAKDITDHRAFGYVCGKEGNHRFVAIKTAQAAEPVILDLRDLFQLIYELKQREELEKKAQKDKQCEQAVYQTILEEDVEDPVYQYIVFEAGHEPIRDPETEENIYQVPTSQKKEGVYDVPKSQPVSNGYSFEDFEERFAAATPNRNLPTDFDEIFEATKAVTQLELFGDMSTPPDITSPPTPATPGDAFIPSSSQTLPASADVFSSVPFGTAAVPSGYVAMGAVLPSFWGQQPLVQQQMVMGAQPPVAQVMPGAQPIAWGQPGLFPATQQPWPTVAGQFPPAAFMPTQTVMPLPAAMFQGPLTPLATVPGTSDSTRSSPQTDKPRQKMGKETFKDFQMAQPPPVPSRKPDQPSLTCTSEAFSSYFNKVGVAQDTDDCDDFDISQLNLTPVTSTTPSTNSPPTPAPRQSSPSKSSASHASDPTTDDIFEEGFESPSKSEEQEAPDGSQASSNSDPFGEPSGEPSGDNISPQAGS

Variants of: B1
Conditions: with cep70_human CEP70, Q8NHQ1

Row | effect of a mutation on the interaction | Variant
1 | with no effect | D88V

Variants of: B2
Conditions: with pa1b3_human PAFAH1B3, Q15102

Row | effect of a mutation on the interaction | Variant
2 | disrupting interaction strength | E295K

Variants of: B3
Conditions: with skp1_human SKP1, P63208
Sequence of skp1_human SKP1, P63208 (P63208 whole entry): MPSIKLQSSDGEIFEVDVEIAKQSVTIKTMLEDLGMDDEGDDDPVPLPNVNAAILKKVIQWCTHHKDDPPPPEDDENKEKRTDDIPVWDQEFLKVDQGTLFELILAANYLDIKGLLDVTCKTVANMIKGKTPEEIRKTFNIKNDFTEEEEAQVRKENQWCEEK

Row | effect of a mutation on the interaction | Variant
3 | with no effect | Y692F

Variants of: B4
Conditions: with dab1_human DAB1, O75553

Row | effect of a mutation on the interaction | Variant
4 | with no effect | V45A
